Results on one molecule are retold here after US20260209384A1 (Stanford University, published 2026).

The target of the test is T1, recombinant human GPC2 (R&D Systems) (human, UniProt Q8N158 24-554, limits assumed, labelled with Dylight488 or Dylight650 in the flow cytometry assays; unlabelled in the ELISA).
T1 construct: extracellular domain; also called hGPC2; human Glypican-2
T1 sequence (looked up): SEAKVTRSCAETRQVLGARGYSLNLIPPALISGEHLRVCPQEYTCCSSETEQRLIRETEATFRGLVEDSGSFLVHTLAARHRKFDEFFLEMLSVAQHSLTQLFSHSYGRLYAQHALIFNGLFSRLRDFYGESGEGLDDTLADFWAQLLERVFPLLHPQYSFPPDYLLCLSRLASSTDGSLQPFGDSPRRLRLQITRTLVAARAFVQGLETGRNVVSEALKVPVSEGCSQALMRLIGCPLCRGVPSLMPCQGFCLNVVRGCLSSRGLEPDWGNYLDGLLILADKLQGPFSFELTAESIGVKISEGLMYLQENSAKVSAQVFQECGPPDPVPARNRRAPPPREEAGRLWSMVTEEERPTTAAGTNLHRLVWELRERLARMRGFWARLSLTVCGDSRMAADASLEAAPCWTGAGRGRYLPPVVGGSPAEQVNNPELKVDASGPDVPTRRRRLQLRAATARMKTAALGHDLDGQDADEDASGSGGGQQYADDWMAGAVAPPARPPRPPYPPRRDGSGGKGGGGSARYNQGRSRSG
The experiment in a line: panning of a human naive Fab phage library against recombinant human GPC2. The source says:
A naïve human Fab phage display library constructed from peripheral blood B cells of 50 healthy donors, was used for selection of Fabs against purified recombinant GPC2 ectodomain (R&D Systems) as previously described. The isolated Fabs were expressed, purified and tested for binding to the GPC2 ectodomain through ELISA.

B1: GPC2.27 (Fab from a human naive Fab phage library) (Fab, V domains shown)
VH: EVQLVESGPGLVKPSETLSLTCAVSGYSISSGYYWGWIRQPPGKGLEWIGSIYHSGSTYYNPSLKSRVTISVDTSKNQFSLKLSSVTAADTAVYYCASLPSRGGFDYWGQGTLVTVSS
VL: EIVMTQSPATLSASVGDRVTIACRASQTISRYLNWYQQKPGKAPKLLIYAASSLQSGVSSRFSGSGSGTEFTLTISSLQPEDFATYFCQQTYSPPITFGQGTRLEIKR
notes: Human Fab selected by phage display
On to B1, for which the binding result is on record as “binds”.
